Data on one substance can be found in publication PMC6531875.

The target in this test is Csk (UniProt P41240). The test is described as follows: anti-Flag co-IP, anti-Myc blot. The settings on record: reference: Myc-Cbp wild type; sites Y317.

Turning to “Cbp (Csk binding protein, Cbp/PAG1) (from UniProt Q9NWQ8) Myc-Cbp Y317F”, the “binding against the reference” value was “weaker”.
